Laboratory results from the Human Domainome abundance scans (Beltran et al. 2025).
± gives the uncertainty stated by the source.

B1: Receptor-interacting serine/threonine-protein kinase 2, residues 438 to 518; numbered along this chain, O43353 (parent)
chain: QWIQSKREDIVNQMTEACLNQSLDALLSRDLIMKEDYELVSTKPTRTSKVRQLLDTTDIQGEEFAKVIVQKLKDNKQMGLQ

Variants of: B1
Assay: abundance fitness (aPCA) (normalised: wild type 0, dead -1); higher = more abundant; growth selection in yeast, the domain comes from the species named
Conditions: Homo sapiens

Row | Variant | abundance fitness
1 | E35A | -0.223 ± 0.085
2 | A17G | -0.175 ± 0.055
3 | A17T | 0.131 ± 0.083
4 | A17M | -0.25 ± 0.16
5 | L31F | -0.74 ± 0.18
6 | L31V | -0.588 ± 0.13
7 | D30R | -0.036 ± 0.049
8 | D30N | -0.401 ± 0.18
9 | D30H | 0.045 ± 0.11
10 | V11C | -0.288 ± 0.09
11 | V11L | -0.373 ± 0.074
12 | I68W | -0.958 ± 0.16
13 | I68C | -0.866 ± 0.19
14 | A65P | -0.554 ± 0.062
15 | D9H | -0.336 ± 0.19
16 | Q77H | -0.137 ± 0.4
17 | Q52P | -0.551 ± 0.079
18 | Q52G | -0.556 ± 0.056
19 | V67W | -0.95 ± 0.15
20 | V67T | -0.305 ± 0.086
21 | V67G | -0.639 ± 0.07
22 | K49V | -0.784 ± 0.22
23 | R29P | -0.433 ± 0.079
24 | R29M | -0.076 ± 0.1

Row | Variant | abundance fitness
25 | R29Y | -0.321 ± 0.14
26 | R29V | -0.66 ± 0.14
27 | L53N | -0.845 ± 0.22
28 | L53H | -0.666 ± 0.14
29 | L53I | -0.544 ± 0.16
30 | L53T | -0.417 ± 0.092
31 | Q21M | -0.736 ± 0.19
32 | Q21I | -0.788 ± 0.1
33 | Q21L | -0.319 ± 0.073
34 | Q21Y | -0.313 ± 0.22
35 | R46E | -0.214 ± 0.16
36 | E8K | -0.319 ± 0.23
37 | E8P | -0.527 ± 0.066
38 | T42N | -0.115 ± 0.15
39 | T42K | -0.206 ± 0.42
40 | T42C | -0.108 ± 0.082
41 | K73Y | -0.039 ± 0.16
42 | K73P | -0.633 ± 0.071
43 | K73H | -0.319 ± 0.17
44 | V50E | -0.538 ± 0.18
45 | V50G | -0.679 ± 0.071
46 | V50A | -0.842 ± 0.089
47 | V50S | -0.389 ± 0.053
48 | R7S | -0.419 ± 0.073

Row | Variant | abundance fitness
49 | I32R | -0.592 ± 0.071
50 | I32Q | -0.273 ± 0.14
51 | L19G | -0.502 ± 0.088
52 | L19W | -1 ± 0.39
53 | S48T | -0.224 ± 0.1
54 | S48P | -0.651 ± 0.089
55 | S48H | -0.47 ± 0.2
56 | S48Y | -0.644 ± 0.21
57 | S48G | -0.11 ± 0.055
58 | T15K | -0.736 ± 0.24
59 | T15G | -0.566 ± 0.071
60 | T15P | -0.492 ± 0.08
61 | D74S | -0.323 ± 0.07
62 | D74N | -0.345 ± 0.29
63 | D74T | -0.285 ± 0.09
64 | D74K | -0.644 ± 0.2
65 | C18A | -0.151 ± 0.067
66 | C18E | 0.062 ± 0.095
67 | C18D | -0.796 ± 0.25
68 | C18H | -0.747 ± 0.2
69 | N20E | -0.571 ± 0.36
70 | N20L | -0.102 ± 0.1
71 | N20V | -0.274 ± 0.11
72 | T45D | 0.029 ± 0.14

Row | Variant | abundance fitness
73 | E63V | -0.592 ± 0.084
74 | E63Y | -0.839 ± 0.26
75 | E63R | -0.413 ± 0.062
76 | E63P | -0.432 ± 0.068
77 | E63G | -0.475 ± 0.08
78 | D24T | -0.28 ± 0.045
79 | D24P | -0.68 ± 0.099
80 | D24K | -0.328 ± 0.19
81 | D24V | -0.434 ± 0.1
82 | L72V | -0.394 ± 0.097
83 | L72H | -0.741 ± 0.2
84 | N75G | -0.241 ± 0.055
85 | T47N | -0.286 ± 0.3
86 | T47P | -0.228 ± 0.073
87 | R51D | -0.517 ± 0.092
88 | R51L | -0.254 ± 0.07
89 | K34R | -0.124 ± 0.063
90 | W2Q | -0.411 ± 0.14
91 | W2E | -0.438 ± 0.11
92 | K43V | -0.348 ± 0.11
93 | K43G | -0.451 ± 0.049
94 | K43P | -0.695 ± 0.25
95 | Y37G | -0.519 ± 0.06
96 | Y37K | -0.412 ± 0.19

Row | Variant | abundance fitness
97 | Y37V | -0.413 ± 0.091
98 | Y37P | -0.614 ± 0.084
99 | Y37L | -0.186 ± 0.068
100 | G79R | -0.282 ± 0.14
101 | T57V | 0.046 ± 0.055
102 | T57F | -0.392 ± 0.12
103 | L27V | -0.067 ± 0.051
104 | L27N | -0.395 ± 0.17
105 | L54S | -0.649 ± 0.079
106 | L54M | -0.622 ± 0.17
107 | S28P | -0.847 ± 0.18
108 | S28M | -0.259 ± 0.11
109 | S28K | 0.095 ± 0.093
110 | S28L | -0.204 ± 0.065
111 | P44W | -0.483 ± 0.1
112 | E16C | -0.853 ± 0.23
113 | E16R | -0.793 ± 0.082
114 | K66G | -0.182 ± 0.042
115 | K66Q | -0.135 ± 0.074
116 | K66Y | -0.874 ± 0.42
117 | K66M | -0.192 ± 0.14
118 | Q13V | -0.199 ± 0.23
119 | G61N | -0.055 ± 0.16
120 | G61R | -0.155 ± 0.054

Row | Variant | abundance fitness
121 | E62H | -0.678 ± 0.13
122 | E62G | -0.537 ± 0.069
123 | E62K | -0.798 ± 0.16
124 | T56L | 0.175 ± 0.061
125 | T56G | -0.458 ± 0.061
126 | K71P | -0.555 ± 0.087
127 | I3F | -0.771 ± 0.47
128 | L23V | -0.509 ± 0.11
129 | L23N | -0.282 ± 0.23
130 | L26Y | -0.879 ± 0.3
131 | L26W | -1.02 ± 0.17
132 | L26A | -0.313 ± 0.059
133 | L26E | -0.364 ± 0.11
134 | L26R | -0.425 ± 0.05
135 | K76Q | -0.032 ± 0.085
136 | K76T | -0.093 ± 0.1
137 | K76V | -0.301 ± 0.092
138 | K6F | 0.095 ± 0.44
139 | D55S | -0.153 ± 0.055
140 | D55E | -0.015 ± 0.09
141 | D55N | -0.347 ± 0.16
142 | D55R | -0.162 ± 0.046
143 | D55K | -0.469 ± 0.23
144 | D55Q | -0.277 ± 0.13

Row | Variant | abundance fitness
145 | D55C | -0.122 ± 0.092
146 | D55G | -0.51 ± 0.05
147 | Q70W | -0.645 ± 0.16
148 | Q70N | -0.81 ± 0.42
149 | Q4M | 0.279 ± 0.29
150 | Q4T | 0.458 ± 0.5
151 | Q4V | -0.756 ± 0.34
152 | V69C | -0.159 ± 0.11
153 | V69H | -0.508 ± 0.25
154 | V69I | -0.051 ± 0.16
155 | M33E | 0.067 ± 0.11
156 | D36V | -0.587 ± 0.24
157 | Q60I | -0.302 ± 0.15
158 | Q60K | -0.361 ± 0.14
159 | Q60G | -0.014 ± 0.054
160 | Q60W | -0.745 ± 0.12
161 | N12H | -0.108 ± 0.11
162 | I10N | -0.476 ± 0.12
163 | I10W | -0.968 ± 0.29
164 | I10C | -0.712 ± 0.17
165 | F64C | 0.112 ± 0.13
166 | F64D | -0.17 ± 0.18
167 | F64L | -0.295 ± 0.054
